Molecular target: protein kinase A catalytic (C) subunit, wild type (UniProt P05132 2-351)
Assay: SPR

B1: RIIβAB, truncated PKA regulatory subunit RIIβ (domain or fragment)
chain: TRRASVCAEAYNPDEEEDDAESRIIHPKTDDQRNRLQEACKDILLFKNLDPEQMSQVLDAMFEKLVKEGEHVIDQGDDGDNFYVIDRGTFDIYVKCDGVGRCVGNYDNRGSFGELALMYNTPRAATITATSPGALWGLDRVTFRRIIVKNNAKKRKMYESFIESLPFLKSLEVSERLKVVDVIGTKVYNDGEQIIAQGDSADSFFIVESGEVRITMKRKGKSDIEENGAVEIARCLRGQYFGELALVTNKPRAASAHAIGTVKCLAMDVQAFERLLGPCMEIMKRNIATYEEQLV
Kd: 2.9 nM
koff: 0.000316 s⁻¹
